The values that follow come from article PMC9051516.

Experiment [1] deals with TGBp1-cYFP (cowpea mild mottle virus triple gene block protein 1 fused to the C-terminal half of YFP) (cowpea mild mottle virus (isolate CPMMV_AH_SZ)). Put plainly: split reporter (BiFC, NanoBiT); BiFC of the TGBp1 and TGBp3 YFP halves with TGBp2-Flag co-expressed in N. benthamiana leaves; confocal microscopy 48 h after infiltration; mean intensity of whole images by ImageJ.

Experiment [2] shares this target. The experiment in a line: split reporter (BiFC, NanoBiT); BiFC: nYFP and cYFP fusions co-expressed by agroinfiltration in N. benthamiana leaves; YFP signal by confocal microscopy 48 h after infiltration; mean intensity of whole images by ImageJ.

“TGBp3-nYFP (cowpea mild mottle virus triple gene block protein 3 fused to the N-terminal half of YFP) (natural protein)”: the mean fluorescence intensity of the BiFC signal, with TGBp2-Flag co-expressed in experiment [1] amounted to 95.9. The same substance had a mean fluorescence intensity of the BiFC signal, without TGBp2-Flag in experiment [2] of 75.7.
